Assays:
[1] = biological target: T1, His-AR1 (AnkG aa 2–236, His-tagged) (UniProt O70511 2-236); experiment: SPR
T1 sequence (looked up): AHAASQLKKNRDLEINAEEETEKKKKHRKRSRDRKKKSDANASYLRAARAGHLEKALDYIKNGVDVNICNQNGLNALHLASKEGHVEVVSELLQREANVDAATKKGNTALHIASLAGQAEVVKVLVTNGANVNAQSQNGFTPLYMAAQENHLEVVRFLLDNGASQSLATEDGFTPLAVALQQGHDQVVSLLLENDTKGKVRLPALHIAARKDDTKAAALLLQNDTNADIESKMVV

[2] = biological target: T2, His-MB (AnkG MB domain, aa 2–791, His-tagged) (UniProt O70511 2-791); experiment: SPR
T2 sequence (looked up): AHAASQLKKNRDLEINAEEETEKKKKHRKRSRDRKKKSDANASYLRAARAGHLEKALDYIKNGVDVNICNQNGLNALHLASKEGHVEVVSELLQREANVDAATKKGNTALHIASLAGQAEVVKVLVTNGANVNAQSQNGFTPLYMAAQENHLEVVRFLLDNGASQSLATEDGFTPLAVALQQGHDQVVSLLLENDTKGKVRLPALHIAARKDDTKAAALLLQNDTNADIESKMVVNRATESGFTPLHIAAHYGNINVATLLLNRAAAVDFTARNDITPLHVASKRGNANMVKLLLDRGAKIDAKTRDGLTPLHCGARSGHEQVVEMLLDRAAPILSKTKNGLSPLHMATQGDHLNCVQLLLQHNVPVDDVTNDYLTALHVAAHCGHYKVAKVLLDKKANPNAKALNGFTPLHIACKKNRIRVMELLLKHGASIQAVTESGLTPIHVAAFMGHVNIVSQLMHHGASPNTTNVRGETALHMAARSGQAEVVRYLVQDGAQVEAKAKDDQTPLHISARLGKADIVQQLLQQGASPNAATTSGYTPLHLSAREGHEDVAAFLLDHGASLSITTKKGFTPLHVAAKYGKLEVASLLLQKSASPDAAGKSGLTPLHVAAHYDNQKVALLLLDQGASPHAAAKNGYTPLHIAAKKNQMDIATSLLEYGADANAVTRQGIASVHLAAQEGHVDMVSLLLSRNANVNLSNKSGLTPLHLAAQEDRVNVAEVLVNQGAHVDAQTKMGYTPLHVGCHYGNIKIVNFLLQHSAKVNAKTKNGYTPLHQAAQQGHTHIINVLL

- Kd [1]: 48 nM
- koff [1]: 0.0014 s⁻¹
- kon [1]: 32000 M⁻¹ s⁻¹
- Kd [2]: 2.4 nM
- koff [2]: 0.00059 s⁻¹
- kon [2]: 290000 M⁻¹ s⁻¹
B1: GST-Tail (GST-tagged KIF5B tail, aa 758–963) (domain or fragment)
chain: not shown
